According to paper doi:10.1101/731679, “Structural insights into the mechanism of the human soluble guanylate cyclase” (bioRxiv, 2019):

T1: cys-less human sGC α1 subunit with L275C (α1^CL L275C), C-terminal GFP-strep (human, UniProt Q02108 64-690, C176A | C239A | C669S | C455Y | C460G | L275C)
T1 construct: soluble guanylate cyclase α1 subunit, human; the cys-rich N-terminal 63 amino acids removed; cys-less background plus L275C; also called α1 L275C; source: HEK293F, transfected (BacMam vector), purified with β1 on Streptactin Beads 4FF; not shown: GFP, C-terminal, kept; strep, C-terminal, kept
T1 sequence (looked up): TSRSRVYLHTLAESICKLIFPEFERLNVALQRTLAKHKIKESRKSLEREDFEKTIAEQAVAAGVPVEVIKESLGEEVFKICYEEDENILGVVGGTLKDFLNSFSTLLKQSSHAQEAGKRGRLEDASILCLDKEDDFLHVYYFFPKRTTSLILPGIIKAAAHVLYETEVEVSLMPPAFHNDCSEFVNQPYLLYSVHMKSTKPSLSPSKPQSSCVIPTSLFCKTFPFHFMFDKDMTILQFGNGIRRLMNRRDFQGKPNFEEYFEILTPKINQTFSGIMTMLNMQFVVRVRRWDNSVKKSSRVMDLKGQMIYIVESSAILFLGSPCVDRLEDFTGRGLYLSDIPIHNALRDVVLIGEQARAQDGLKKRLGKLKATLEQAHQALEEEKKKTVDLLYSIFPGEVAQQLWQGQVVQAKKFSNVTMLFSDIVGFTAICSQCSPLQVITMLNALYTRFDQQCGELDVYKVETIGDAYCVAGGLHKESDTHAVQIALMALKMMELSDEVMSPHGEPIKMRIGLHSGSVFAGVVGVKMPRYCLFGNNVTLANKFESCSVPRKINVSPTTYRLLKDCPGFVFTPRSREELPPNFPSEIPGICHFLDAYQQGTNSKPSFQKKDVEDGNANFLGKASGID

T2: cys-less human sGC α1 subunit with L425C (α1^CL L425C), C-terminal GFP-strep (human, UniProt Q02108 64-690, C176A | C239A | C669S | C455Y | C460G | L425C)
T2 construct: soluble guanylate cyclase α1 subunit, human; the cys-rich N-terminal 63 amino acids removed; cys-less background plus L425C; also called α1 L425C; source: HEK293F, transfected (BacMam vector), purified with β1 on Streptactin Beads 4FF; not shown: GFP, C-terminal, kept; strep, C-terminal, kept
T2 sequence (looked up): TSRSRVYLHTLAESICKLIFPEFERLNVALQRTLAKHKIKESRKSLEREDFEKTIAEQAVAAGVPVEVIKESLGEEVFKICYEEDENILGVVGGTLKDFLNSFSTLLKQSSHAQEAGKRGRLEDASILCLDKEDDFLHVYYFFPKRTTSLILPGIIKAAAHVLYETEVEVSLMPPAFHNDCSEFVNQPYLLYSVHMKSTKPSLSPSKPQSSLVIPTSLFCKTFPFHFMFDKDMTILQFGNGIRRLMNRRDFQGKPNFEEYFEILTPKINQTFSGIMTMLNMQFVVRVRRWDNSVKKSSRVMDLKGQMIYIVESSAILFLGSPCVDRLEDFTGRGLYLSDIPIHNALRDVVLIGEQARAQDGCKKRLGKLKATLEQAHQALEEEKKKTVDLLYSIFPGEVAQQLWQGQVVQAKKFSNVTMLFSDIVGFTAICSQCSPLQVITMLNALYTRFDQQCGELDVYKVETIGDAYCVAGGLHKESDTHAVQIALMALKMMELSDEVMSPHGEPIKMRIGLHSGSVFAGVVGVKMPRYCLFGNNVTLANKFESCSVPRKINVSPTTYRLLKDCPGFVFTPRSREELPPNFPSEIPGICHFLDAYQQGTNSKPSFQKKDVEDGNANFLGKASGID

B1: cys-less human sGC β1 subunit with A316C (β1^CL A316C), without tags (natural protein, UniProt Q02153 1-619, looked up)
chain: MYGFVNHALELLVIRNYGPEVWEDIKKEAQLDEEGQFLVRIIYDDSKTYDLVAAASKVLNLNAGEILQMFGKMFFVFCQESGYDTILRVLGSNVREFLQNLDALHDHLATIYPGMRAPSFRCTDAEKGKGLILHYYSEREGLQDIVIGIIKTVAQQIHGTEIDMKVIQQRNEECDHTQFLIEEKESKEEDFYEDLDRFEENGTQESRISPYTFCKAFPFHIIFDRDLVVTQCGNAIYRVLPQLQPGNCSLLSVFSLVRPHIDISFHGILSHINTVFVLRSKEGLLDVEKLENEDELTGTEISCLRLKGQMIYLPECDSILFLCSPSVMNLDDLTRRGLYLSDIPLHDATRDLVLLGEQFREEYKLTQELEILTDRLQLTLRALEDEKKKTDTLLYSVLPPSVANELRHKRPVPAKRYDNVTILFSGIVGFNAFCSKHASGEGAMKIVNLLNDLYTRFDTLTDSRKNPFVYKVETVGDKYMTVSGLPEPCIHHARSICHLALDMMEIAGQVQVDGESVQITIGIHTGEVVTGVIGQRMPRYCLFGNTVNLTSRTETTGEKGKINVSEYTYRCLMSPENSDPQFHLEHRGPVSMKGKKEPMQVWFLSRKNTGTEETKQDDD
notes: soluble guanylate cyclase β1 subunit, human; cys-less background (C292N) plus A316C; The PDB entries are of the wild-type parent; also called β1 A316C; source: HEK293F, transfected (BacMam vector), purified with α1 on Streptactin Beads 4FF
B2: cys-less human sGC β1 subunit with L365C (β1^CL L365C), without tags (natural protein, UniProt Q02153 1-619, looked up)
chain: MYGFVNHALELLVIRNYGPEVWEDIKKEAQLDEEGQFLVRIIYDDSKTYDLVAAASKVLNLNAGEILQMFGKMFFVFCQESGYDTILRVLGSNVREFLQNLDALHDHLATIYPGMRAPSFRCTDAEKGKGLILHYYSEREGLQDIVIGIIKTVAQQIHGTEIDMKVIQQRNEECDHTQFLIEEKESKEEDFYEDLDRFEENGTQESRISPYTFCKAFPFHIIFDRDLVVTQCGNAIYRVLPQLQPGNCSLLSVFSLVRPHIDISFHGILSHINTVFVLRSKEGLLDVEKLENEDELTGTEISCLRLKGQMIYLPEADSILFLCSPSVMNLDDLTRRGLYLSDIPLHDATRDLVLLGEQFREEYKCTQELEILTDRLQLTLRALEDEKKKTDTLLYSVLPPSVANELRHKRPVPAKRYDNVTILFSGIVGFNAFCSKHASGEGAMKIVNLLNDLYTRFDTLTDSRKNPFVYKVETVGDKYMTVSGLPEPCIHHARSICHLALDMMEIAGQVQVDGESVQITIGIHTGEVVTGVIGQRMPRYCLFGNTVNLTSRTETTGEKGKINVSEYTYRCLMSPENSDPQFHLEHRGPVSMKGKKEPMQVWFLSRKNTGTEETKQDDD
notes: soluble guanylate cyclase β1 subunit, human; cys-less background (C292N) plus L365C; The PDB entries are of the wild-type parent; also called β1 L365C; source: HEK293F, transfected (BacMam vector), purified with α1 on Streptactin Beads 4FF

Experiments:
[1] = molecular target: T1, cys-less human sGC α1 subunit with …; assay: cross-linking; disulfide cross-linking of Streptactin-purified cys-less sGC with 0.1 mM Cu(II)(1,10-phenanthroline)3 on ice for 30 min; SDS-PAGE non-reducing or reducing (100 mM DTT); in-gel GFP fluorescence of α1; conditions: both partners purified
[2] = molecular target: T2, cys-less human sGC α1 subunit with …; assay: as above; conditions: both partners purified

Binder	binding result [1]	binding result [2]
B1	binds	
B2		binds
